Legend:
[1] = target: human AXL (full length) (human) (UniProt P30530); test: flow cytometry, A431 cells pre-incubated with 10 µg/mL Gas6 (competitor)
[2] = target: human AXL (full length) (human) (UniProt P30530); test: flow cytometry, A431 cells pre-incubated with 10 µg/mL Gas6 (competitor); value less accurate due to low binding
[3] = target: human AXL (full length) (human) (UniProt P30530); test: flow cytometry, A431 cells, no Gas6

B1: IgG1-YW327.6S2 (antibody, from another filing, V domains shown)
VH: EVQLVESGGGLVQPGGSLRLSCAASGFSLSGSWIHWVRQAPGKGLEWVGWINPYRGYAYYADSVKGRFTISADTSKNTAYLQMNSLRAEDTAVYYCAREYSGWGGSSVGYAMDYWGQGTLVTVSS
VL: DIQMTQSPSSLSASVGDRVTITCRASQDVSTAVAWYQQKPGKAPKLLIYSASFLYSGVPSRFSGSGSGTDFTLTISSLQPEDFATYYCQQSYTTPPTFGQGTKVEIK
B1 showed a fold change of EC50 after Gas6 pre-incubation against no Gas6 [1] of 21 fold, a maximal binding in presence of Gas6 (% of binding in absence of Gas6) [1] of 41% and a maximal binding in presence of Gas6 (% of binding without Gas6) [1] of 19%. For the same binder, the EC50 [2] was 1.9 µg/mL and the EC50 [3] was 0.09 µg/mL.
